Experimental findings from patent publication US20190062727A1 (University of Texas, published 2019) are described below.

This assay concerns the target T1, Rlip (RALBP1, RLIP76), endogenous protein of mouse embryonic fibroblasts and mouse liver (mouse, UniProt Q62172 2-648).
T1 construct: Endogenous protein, detected with a rabbit monoclonal anti-Rlip antibody from Abcam
T1 sequence (looked up): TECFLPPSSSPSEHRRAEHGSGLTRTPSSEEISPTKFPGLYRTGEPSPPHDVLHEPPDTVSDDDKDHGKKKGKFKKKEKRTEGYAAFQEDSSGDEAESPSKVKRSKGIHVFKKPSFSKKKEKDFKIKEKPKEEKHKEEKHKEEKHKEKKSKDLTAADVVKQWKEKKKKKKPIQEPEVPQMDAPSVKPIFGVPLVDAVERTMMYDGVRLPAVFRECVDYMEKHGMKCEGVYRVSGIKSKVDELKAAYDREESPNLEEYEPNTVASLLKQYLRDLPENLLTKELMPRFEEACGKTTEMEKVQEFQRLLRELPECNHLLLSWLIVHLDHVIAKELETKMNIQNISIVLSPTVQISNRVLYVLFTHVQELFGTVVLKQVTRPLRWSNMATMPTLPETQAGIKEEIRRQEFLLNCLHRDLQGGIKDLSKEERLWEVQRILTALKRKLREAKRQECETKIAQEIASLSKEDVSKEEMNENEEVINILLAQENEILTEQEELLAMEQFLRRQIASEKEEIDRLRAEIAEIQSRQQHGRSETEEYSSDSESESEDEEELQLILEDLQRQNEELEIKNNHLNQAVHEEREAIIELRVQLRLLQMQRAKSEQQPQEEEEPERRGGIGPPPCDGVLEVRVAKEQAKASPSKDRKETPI
The assay can be described thus: co-immunoprecipitation from whole-cell homogenates of wt, p53+/- and p53-/- MEFs. The source says:
Binding interactions of HSF1, Rlip and p53 in wt, p53^{-/-} MEFs without or with Rlip depletion using R508 were studied by co-immunoprecipitation using protein A/G PLUS-Agarose immunoprecipitation reagent sc-2003 from Santa Cruz Biotechnology (Columbus, Ohio) according to the manufacture's protocol using whole-cell homogenates of wild-type, p53^{-/-} or p53^{+/-} MEFs. Primary anti-HSF1 rabbit monoclonal antibody (D3L8I) and anti-p53 mouse monoclonal antibody was from Cell Signaling Technology (Danvers, Mass.), and rabbit monoclonal anti-Rlip antibody was from Abcam (Cambridge, Mass.). The specificity of primary antibodies was tested using MEFs from either p53^{-/-} or Rlip^{-/-} MEFs. The corresponding probes of anti-rabbit PLUS and anti-mouse MINUS were provided in the kit and used per the manufacturer's instructions. wt, p53^{-/-} and […]. […] Slides were visualized by fluorescence microscopy using an Olympus BX50 microscope, and photomicrographs were taken using a 40× objective.
The 4-hydroxynonenal (4HNE) and8-OH-deoxyguanosine (8OHdG) levels were measured in liver homogenate using Oxiselect kits from Cell Biolabs, San Diego, Calif. by procedures described in Methods and the results are shown in FIG. 2A and FIG. 2B, respectively. […]

B1: p53 (TP53), endogenous protein of mouse embryonic fibroblasts and mouse liver (other, UniProt P02340 1-390, looked up)
chain: MTAMEESQSDISLELPLSQETFSGLWKLLPPEDILPSPHCMDDLLLPQDVEEFFEGPSEALRVSGAPAAQDPVTETPGPVAPAPATPWPLSSFVPSQKTYQGNYGFHLGFLQSGTAKSVMCTYSPPLNKLFCQLAKTCPVQLWVSATPPAGSRVRAMAIYKKSQHMTEVVRRCPHHERCSDGDGLAPPQHLIRVEGNLYPEYLEDRQTFRHSVVVPYEPPEAGSEYTTIHYKYMCNSSCMGGMNRRPILTIITLEDSSGNLLGRDSFEVRVCACPGRDRRTEEENFRKKEVLCPELPPGSAKRALPTCTSASPPQKKKPLDGEYFTLKIRGRKRFEMFRELNEALELKDAHATEESGDSRAHSSYLKTKKGQSTSRHKKTMVKKVGPDSD
notes: Endogenous protein, detected with a mouse monoclonal anti-p53 antibody from Cell Signaling Technology
Take B1: the binding result is on record as “binds”.
